Test results from paper PMC5291321 (Science (New York, N.Y.), 2016).
Like-named read-outs stand apart in the source and are kept apart here.

T1: full-length GluD2 (GluD2FL) (human, UniProt O43424 24-1007)
T1 sequence (looked up): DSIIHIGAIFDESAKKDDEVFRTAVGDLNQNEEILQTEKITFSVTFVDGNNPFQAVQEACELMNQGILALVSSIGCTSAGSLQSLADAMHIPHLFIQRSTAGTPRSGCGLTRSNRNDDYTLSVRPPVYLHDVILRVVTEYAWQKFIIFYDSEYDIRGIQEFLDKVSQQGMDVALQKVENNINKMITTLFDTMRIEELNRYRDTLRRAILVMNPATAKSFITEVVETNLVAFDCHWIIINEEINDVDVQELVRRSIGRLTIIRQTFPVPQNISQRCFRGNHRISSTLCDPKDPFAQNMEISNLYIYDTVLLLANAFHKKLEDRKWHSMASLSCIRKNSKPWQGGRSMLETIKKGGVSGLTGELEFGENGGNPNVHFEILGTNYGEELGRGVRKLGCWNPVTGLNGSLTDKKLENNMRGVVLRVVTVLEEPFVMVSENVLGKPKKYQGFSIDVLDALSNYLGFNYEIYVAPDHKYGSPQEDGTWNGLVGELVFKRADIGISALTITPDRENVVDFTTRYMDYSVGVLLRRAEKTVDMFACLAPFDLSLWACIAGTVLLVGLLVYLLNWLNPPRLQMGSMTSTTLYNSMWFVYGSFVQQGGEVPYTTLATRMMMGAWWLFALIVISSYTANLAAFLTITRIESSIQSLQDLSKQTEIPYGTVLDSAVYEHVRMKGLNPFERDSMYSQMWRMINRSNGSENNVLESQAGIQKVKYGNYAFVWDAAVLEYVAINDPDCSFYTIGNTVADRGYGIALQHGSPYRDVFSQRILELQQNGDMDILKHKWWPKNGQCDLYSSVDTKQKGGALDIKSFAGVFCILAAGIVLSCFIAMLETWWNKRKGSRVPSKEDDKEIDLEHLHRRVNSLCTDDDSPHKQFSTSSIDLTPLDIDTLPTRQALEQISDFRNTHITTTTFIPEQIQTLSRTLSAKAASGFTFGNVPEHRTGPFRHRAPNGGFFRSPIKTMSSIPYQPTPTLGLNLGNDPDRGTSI

B1: full-length Cbln1 (Cbln1FL) (natural protein, human, UniProt P23435 22-193, looked up)
chain: QNETEPIVLEGKCLVVCDSNPTSDPTGTALGISVRSGSAKVAFSAIRSTNHEPSEMSNRTMIIYFDQVLVNIGNNFDSERSTFIAPRKGIYSFNFHVVKVYNRQTIQVSLMLNGWPVISAFAGDQDVTREAASNGVLIQMEKGDRAYLKLERGNLMGGWKYSTFSGFLVFPL
B2: mouse GluD1 amino-terminal domain (GluD1ATD) (domain or fragment)
chain: DSIIHIGAIFEENAAKDDRVFQLAVSDLSLNDDILQSEKITYSIKVIEANNPFQAVQEACDLMTQGILALVTSTGCASANALQSLTDAMHIPHLFVQRNPGGSPRTACHLNPSPDGEAYTLASRPPVRLNDVMLRLVTELRWQKFVMFYDSEYDIRGLQSFLDQASRLGLDVSLQKVDKNISHVFTSLFTTMKTEELNRYRDTLRRAILLLSPQGAHSFINEAVETNLASKDSHWVFVNEEISDPEILDLVHSALGRMTVVRQIFPSAKDNQKCMRNNHRISSLLCDPQEGYLQMLQISNLYLYDSVLMLANAFHRKLEDRKWHSMASLNCIRKSTKPWNGGRSMLDTIKKGHITGLTGVMEFREDSSNPYVQFEILGTTYSETFGKDMRKLATWDSEKGLNGSLQERPMGSRLQG
B3: GluD2 amino-terminal domain (GluD2ATD) (domain or fragment, human)
chain: DSIIHIGAIFDESAKKDDEVFRTAVGDLNQNEEILQTEKITFSVTFVDGNNPFQAVQEACELMNQGILALVSSIGCTSAGSLQSLADAMHIPHLFIQRSTAGTPRSGCGLTRSNRNDDYTLSVRPPVYLHDVILRVVTEYAWQKFIIFYDSEYDIRGIQEFLDKVSQQGMDVALQKVENNINKMITTLFDTMRIEELNRYRDTLRRAILVMNPATAKSFITEVVETNLVAFDCHWIIINEEINDVDVQELVRRSIGRLTIIRQTFPVPQNISQRCFRGNHRISSTLCDPKDPFAQNMEISNLYIYDTVLLLANAFHKKLEDRKWHSMASLSCIRKNSKPWQGGRSMLETIKKGGVSGLTGELEFGENGGNPNVHFEILGTNYGEELGRGVRKLGCWNPVTGLNGSLTDKKLENNMRG

Key:
[1] = biological target: T1, full-length GluD2 (GluD2FL); test: SPR
[2] = biological target: the molecule itself; test: crystal structure
[3] = biological target: the molecule itself; test: crystal structure; remark: listed apart in the source

| Binder | Kd [1] | stoichiometry N [2] | stoichiometry N [3] |
| --- | --- | --- | --- |
| B1 | ~0.125 µM | – | – |
| B2 | – | 2 | – |
| B3 | – | 2 | 4 |
